# From IntAct's records for PubMed 19250911
# B1: Next to BRCA1 gene 1 protein (Homo sapiens), Q14596 (parent)
# chain: MEPQVTLNVTFKNEIQSFLVSDPENTTWADIEAMVKVSFDLNTIQIKYLDEENEEVSINSQGEYEEALKMAVKQGNQLQMQVHEGHHVVDEAPPPVVGAKRLAARAGKKPLAHYSSLVRVLGSDMKTPEDPAVQSFPLVPCDTDQPQDKPPDWFTSYLETFREQVVNETVEKLEQKLHEKLVLQNPSLGSCPSEVSMPTSEETLFLPENQFSWHIACNNCQRRIVGVRYQCSLCPSYNICEDCEAGPYGHDTNHVLLKLRRPVVGSSEPFCHSKYSTPRLPAALEQVRLQKQVDKNFLKAEKQRLRAEKKQRKAEVKELKKQLKLHRKIHLWNSIHGLQSPKSPLGRPESLLQSNTLMLPLQPCTSVMPMLSAAFVDENLPDGTHLQPGTKFIKHWRMKNTGNVKWSADTKLKFMWGNLTLASTEKKDVLVPCLKAGHVGVVSVEFIAPALEGTYTSHWRLSHKGQQFGPRVWCSIIVDPFPSEESPDNIEKGMISSSKTDDLTCQQEETFLLAKEERQLGEVTEQTEGTAACIPQKAKNVASERELYIPSVDLLTAQDLLSFELLDINIVQELERVPHNTPVDVTPCMSPLPHDSPLIEKPGLGQIEEENEGAGFKALPDSMVSVKRKAENIASVEEAEEDLSGTQFVCETVIRSLTLDAAPDHNPPCRQKSLQMTFALPEGPLGNEKEEIIHIAEEEAVMEEEEDEEDEEEEDELKDEVQSQSSASSEDYIIILPECFDTSRPLGDSMYSSALSQPGLERGAEGKPGVEAGQEPAEAGERLPGGENQPQEHSISDILTTSQTLETVPLIPEVVELPPSLPRSSPCVHHHGSPGVDLPVTIPEVSSVPDQIRGEPRGSSGLVNSRQKSYDHSRHHHGSSIAGGLVKGALSVAASAYKALFAGPPVTAQPIISEDQTAALMAHLFEMGFCDRQLNLRLLKKHNYNILQVVTELLQLNNNDWYSQRY
# B2: Next to BRCA1 gene 1 protein (Homo sapiens), Q14596 (parent)
# chain: B1 chain
# partner: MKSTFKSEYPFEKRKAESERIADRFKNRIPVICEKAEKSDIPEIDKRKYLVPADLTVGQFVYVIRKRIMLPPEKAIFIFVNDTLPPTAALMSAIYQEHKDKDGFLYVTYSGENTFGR
# Columns and labels:
# [1] = variants of: B1; settings: with gbrap_human GABARAP
# [2] = variants of: B1; settings: with gbrl2_human GABARAPL2, P60520
# Sequence of gbrl2_human GABARAPL2, P60520 (P60520 whole entry): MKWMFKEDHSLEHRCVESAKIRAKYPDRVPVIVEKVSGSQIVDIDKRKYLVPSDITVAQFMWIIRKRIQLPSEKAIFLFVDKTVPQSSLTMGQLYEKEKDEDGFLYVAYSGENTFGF
# [3] = variants of: B1; settings: with mlp3b_human MAP1LC3B
# [4] = variants of: B2; settings: with atg8_yeast ATG8, P38182
effect of a mutation on the interaction [1],effect of a mutation on the interaction [2],effect of a mutation on the interaction [3],effect of a mutation on the interaction [4],Variant
decreasing interaction,decreasing interaction,decreasing interaction,,Y732A
,,,decreasing interaction,Y732A
